Experimental findings from patent US20250145711A1 (Janssen / Centocor, published 2025) are described below.

Experiment [1] has as its target T1, TRCW5 antigen (CD3δε-Fc-Avi) (biotinylated (site not stated)).
T1 construct: also called recombinant CD3
Briefly: ELISA: biotinylated TRCW5 on streptavidin plates at the antigen concentration of the x axis, E. coli scFv supernatant, anti-HA-HRP, luminescence. As for the experimental part: (§1) Briefly, DNA was transformed into an E. coli expression vector to generate scFv molecules having a C-terminal HA-tag, and cells were plated on 2×YT/Carb/2% Glucose grown overnight at 37 C. Colonies were picked and transferred 50 ul of overnight growth cultures to new plates containing 500 ul of 2×YT/Carb/0.1% Glucose, grown for 6-7 hr, and combined with 50 ul 2×YT medium containing 1×carbenicillin & 12×IPTG. Cultures were incubated with shaking ˜600 RPM 30° C. overnight. Streptavidin coated plates were bound with 50 μL of biotinylated TRCW5 antigen (CD3δε-Fc-Avi, SEQ ID NO: 39) at the concentrations indicated in the ELISA graph for 45 min at room temperature with shaking (FIG. 1, FIG. 3, FIG. 4) followed by washing 3× with 1×TBST. Plates were blocked with 200 ul 3% Milk in 1×TBST for ˜45 mins at room temperature followed by washing 3× with 1×TBST. E. coli cultures were harvested by centrifugation at […] for 10 mins 4° C. and 50 μL of supernatant was transferred into CD3-coated plates followed by incubation at 4 C for 45 min. Plates were washed 3× with 1×TBST. Bound scFv was detected with Chicken Polyclonal Anti-HA-HRP (ab1190) [1:1000] for ˜45 mins RT and luminescence detected with chemi-luminescent substrate.

Experiment [2] concerns the target T2, Human CD79b, endogenous on diffuse large B-cell lymphoma cell lines (human, UniProt P40259 29-229).
T2 construct: On HBL-1, OCI-LY10 and Carnaval cells, which also carry CD20; also called Igβ
T2 sequence: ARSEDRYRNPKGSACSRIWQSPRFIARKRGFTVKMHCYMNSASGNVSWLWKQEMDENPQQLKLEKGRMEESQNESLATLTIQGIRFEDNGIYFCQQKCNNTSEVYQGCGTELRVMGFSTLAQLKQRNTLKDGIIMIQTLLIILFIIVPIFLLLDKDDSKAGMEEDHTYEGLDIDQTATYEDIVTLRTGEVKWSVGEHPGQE
Briefly: flow cytometry on Carnaval cells; bispecific control in the trispecific table. As for the experimental part: (§2) All cells were washed with BD stain buffer (BD Biosciences; Cat #554657), centrifuged at 1200 RPM for 3 minutes, with supernatant discarded. […] All cells were washed with BD stain buffer (BD Biosciences; Cat #554657), centrifuged at 1200 RPM for 3 mins, with supernatant discarded. Cells were analyzed using Intellicyt (Sartorius) flow cytometer and mean fluorescent intensity (MFI) was generated using Forcyt software (Sartorius). MFI was graphed and EC50 values generated using GraphPad PRISM v.8. Dose response curves were generated by transforming the x axis values using the formula […]. Data was then graphed using non-linear regression curve fit analysis “log(agonist) vs. response-variable slope (four parameter)”.

For experiment [3], the target named is T2, Human CD79b, endogenous on diffuse …. Briefly: flow cytometry on HBL-1 cells; bispecific control in the trispecific table. As for the experimental part: as §2
Experiment [4] has the same target. Briefly: flow cytometry on HBL-1 cells (endogenous CD79b), 1 h 37 C, anti-human IgG AF647. As for the experimental part: as §2
Experiment [5] deals with T3, Human CD79b long isoform, recombinant extracellular domain (CD9W8.001) (human, UniProt P40259 29-159).
T3 construct: extracellular domain; also called hu CD79b long
T3 sequence (looked up): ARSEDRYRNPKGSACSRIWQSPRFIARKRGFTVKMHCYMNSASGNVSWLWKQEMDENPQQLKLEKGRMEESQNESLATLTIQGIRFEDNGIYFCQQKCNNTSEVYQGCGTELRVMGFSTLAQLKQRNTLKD
Briefly: SPR Biacore 8K, antibody captured by anti-human Fc, CD79b in solution, 25 C, 1:1 Langmuir. As for the experimental part: (§3) General Protocol for SPR Affinity Assessment: Affinity assessment of the bispecific and trispecific constructs against human CD79b were measured using recombinantly expressed extracellular domain of CD79b short and long isoforms (CD9W7.001 and CD9W8.001, respectively) by Surface Plasmon Resonance (SPR) using a Biacore 8 k SPR system (Biacore) at 25° C. in HBSP+ buffer. Cross-reactivity of the same antibody panel was also assessed against cyno and mouse antigens (CD9W1.001 and CD9W105.001, respectively). Briefly, a C1 sensor chip was immobilized with anti-human Fc (target immobilization levels of >400 RU) using vendor recommended amino coupling protocol. The test antibodies were captured through immobilized anti-Fc and was followed by the injection of different CD79b constructs at different concentration series (human CD79b short and long isoforms: 30 nM-0.37 nM at 3-fold dilutions; cyno and mouse CD79b: 3000 nM-37 nM at 3-fold dilutions). The association and dissociation phases were measured for 2 or 3 minutes and 30 minutes, respectively.
(§4) The raw binding sensorgrams were processed using Biacore Insight software (Biacore) by double-referencing and the processed sensorgrams were analyzed for cross-reactivity and fitted to a 1:1 Langmuir model to obtain on-rates, off-rates and affinities.

Experiment [6] has as its target T4, Human CD79b short isoform, recombinant extracellular domain (CD9W7.001) (human, UniProt P40259 29-159).
T4 chain: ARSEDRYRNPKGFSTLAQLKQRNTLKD
The experiment is described as above. As for the experimental part: as §3, §4

Experiment [7] addresses T2, Human CD79b, endogenous on diffuse …. Briefly: flow cytometry on Carnaval cells (endogenous CD79b), 1 h 37 C, anti-human IgG AF647. As for the experimental part: as §2
Experiment [8] deals with T1, TRCW5 antigen (CD3δε-Fc-Avi). Briefly: ELISA after heat.
Experiment [9] has the same target. The experiment can be described thus: ELISA, E. coli scFv on biotinylated TRCW5. As for the experimental part:
as §1

Experiment [10] has the same target. Briefly: ELISA: biotinylated TRCW5 on streptavidin plates at the [CD3] of the x axis, E. coli scFv supernatant, anti-HA-HRP, luminescence. As for the experimental part:
as §1

T1 sequence (chain, as listed by the source mutant limits assumed): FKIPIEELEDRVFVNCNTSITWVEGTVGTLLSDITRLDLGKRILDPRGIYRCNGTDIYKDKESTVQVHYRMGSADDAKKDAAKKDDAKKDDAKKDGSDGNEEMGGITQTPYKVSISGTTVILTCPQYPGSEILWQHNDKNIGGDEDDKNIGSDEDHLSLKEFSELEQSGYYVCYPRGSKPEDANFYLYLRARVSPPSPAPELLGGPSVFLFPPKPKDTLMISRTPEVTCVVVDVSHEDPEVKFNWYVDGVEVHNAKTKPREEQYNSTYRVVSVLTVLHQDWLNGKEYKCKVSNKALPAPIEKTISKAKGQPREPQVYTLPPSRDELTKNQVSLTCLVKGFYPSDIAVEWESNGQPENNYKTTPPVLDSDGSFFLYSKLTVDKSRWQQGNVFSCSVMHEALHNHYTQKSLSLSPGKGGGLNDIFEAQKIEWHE

B1: CD3B1136 (scFv)
scFv, VL-linker-VH (LH): EIVLTQSPATLSLSPGERATLSCSASSSVSYMNWYQQKPGTSPRRLIYDSSKLASGIPARFSGSGSGRDYTLTISSLEPEDFAVYYCQQWSRNPPTFGGGTKVEIKGGSEGKSSGSGSESKSTGGSEVQLVQSGAEVKKPGESLRISCKASGYTFTRSTMHWVRQMPGKGLEWMGYINPSSAYTNYNPSFQGHVTLSADKSISTAYLQWSSLKASDTAMYYCARPQVHYDYNGFPYWGQGTLVTVSS
In the case of B1, the binding result in experiment [1] is on record as “no binding (tested: 10 ug/ml (antigen))”.

B2: 79C3B646 (bispecific antibody, human IgG1, lambda, L234A L235A)
heavy: QVQLQQSGPGLVKPSQTLSLTCAISGDSVSSNSATWNWIRQSPSRGLEWLGRTYYRSKWYNDYTVSVKSRITINPDTSKNQFSLQLNSVTPEDTAVYYCTRVDIAFDYWGQGTLVTVSSASTKGPSVFPLAPSSKSTSGGTAALGCLVKDYFPEPVTVSWNSGALTSGVHTFPAVLQSSGLYSLSSVVTVPSSSLGTQTYICNVNHKPSNTKVDKKVEPKSCDKTHTCPPCPAPEAAGGPSVFLFPPKPKDTLMISRTPEVTCVVVSVSHEDPEVKFNWYVDGVEVHNAKTKPREEQYNSTYRVVSVLTVLHQDWLNGKEYKCKVSNKALPAPIEKTISKAKGQPREPQVYTLPPSREEMTKNQVSLSCAVKGFYPSDIAVEWESNGQPENNYKTTPPVLDSDGSFFLVSKLTVDKSRWQQGNVFSCSVMHEALHNRFTQKSLSLSPGK
light: QTVVTQPPSVSEAPRQRVTISCSGSSSNIGNHGVNWYQQLPGKAPKLLIYNDDLLPSGVSDRFSGSTSGTSGSLAISGLQSEDEADYYCAAWDDSLNGVVFGGGTKLTVLGQPKAAPSVTLFPPSSEELQANKATLVCLISDFYPGAVTVAWKADSSPVKAGVETTTPSKQSNNKYAASSYLSLTPEQWKSHRSYSCQVTHEGSTVEKTVAPTECS
chain: EIVLTQSPATLSASPGERVTLSCSASSSVSYMNWYQQKPGQAPRRWIYDSSKLASGVPARFSGSGSGRDYTLTISSLEPEDFAVYYCQQWSRNPPTFGGGTKVEIKGGSEGKSSGSGSESKSTGGSQVQLVQSGAEVKKPGSSVKVSCKASGYTFTRSTMHWVKQAPGQGLEWIGYINPSSAYTNYNQKFQGRVTLTADKSTSTAYMELSSLRSEDTAVYYCASPQVHYDYAGFPYWGQGTLVTVSSEPKSSDKTHTCPPCPAPEAAGGPSVFLFPPKPKDTLMISRTPEVTCVVVSVSHEDPEVKFNWYVDGVEVHNAKTKPREEQYNSTYRVVSVLTVLHQDWLNGKEYKCKVSNKALPAPIEKTISKAKGQPREPQVYTLPPSREEMTKNQVSLWCLVKGFYPSDIAVEWESNGQPENNYKTTPPVLDSDGSFFLYSKLTVDKSRWQQGNVFSCSVMHEALHNHYTQKSLSLSPGK
notes: IgG1; HC1/LC form the CD79b Fab arm; HC2 is the CD3 scFv-Fc arm; Knobs-in-holes; also called CD79bxCD3 bsAb; CD9B330-N31S x CD3B2030-N106A
In the case of B2, the half-maximal effective concentration (EC50) in experiment [2] was 44 nM; in experiment [3], 97 nM; in [4], 97 nM; in experiment [7], 44 nM. Besides, the dissociation constant Kd was determined as 0.022 nM in experiment [5] and 0.58 nM in experiment [6].

B3: 79C3B651 (bispecific antibody, human IgG1, kappa, L234A L235A)
heavy: QVQLQESGPGLVKPSQTLSLTCTVSGVSISNYYWSWIRQPPGKGLEWIGRISPSGRTNYNPSLKSRVTMSLDASKNQFSLKLSSVTAADTAVYYCARGEYSGTYSYSFDIWGQGTMVTVSSASTKGPSVFPLAPSSKSTSGGTAALGCLVKDYFPEPVTVSWNSGALTSGVHTFPAVLQSSGLYSLSSVVTVPSSSLGTQTYICNVNHKPSNTKVDKKVEPKSCDKTHTCPPCPAPEAAGGPSVFLFPPKPKDTLMISRTPEVTCVVVSVSHEDPEVKFNWYVDGVEVHNAKTKPREEQYNSTYRVVSVLTVLHQDWLNGKEYKCKVSNKALPAPIEKTISKAKGQPREPQVYTLPPSREEMTKNQVSLSCAVKGFYPSDIAVEWESNGQPENNYKTTPPVLDSDGSFFLVSKLTVDKSRWQQGNVFSCSVMHEALHNRFTQKSLSLSPGK
light: DIQMTQSPSSLSASVGDRVTITCRSSQSLFDSDDGNTYLDWFQQKPGQSPKLLIQTLSYRASGVPSRFSGSGSGTDFTLTISSLQPEDFATYYCMQRMEFPLTFGGGTKVEIKRTVAAPSVFIFPPSDEQLKSGTASVVCLLNNFYPREAKVQWKVDNALQSGNSQESVTEQDSKDSTYSLSSTLTLSKADYEKHKVYACEVTHQGLSSPVTKSFNRGEC
chain: EIVLTQSPATLSASPGERVTLSCSASSSVSYMNWYQQKPGQAPRRWIYDSSKLASGVPARFSGSGSGRDYTLTISSLEPEDFAVYYCQQWSRNPPTFGGGTKVEIKGGSEGKSSGSGSESKSTGGSQVQLVQSGAEVKKPGSSVKVSCKASGYTFTRSTMHWVKQAPGQGLEWIGYINPSSAYTNYNQKFQGRVTLTADKSTSTAYMELSSLRSEDTAVYYCASPQVHYDYAGFPYWGQGTLVTVSSEPKSSDKTHTCPPCPAPEAAGGPSVFLFPPKPKDTLMISRTPEVTCVVVSVSHEDPEVKFNWYVDGVEVHNAKTKPREEQYNSTYRVVSVLTVLHQDWLNGKEYKCKVSNKALPAPIEKTISKAKGQPREPQVYTLPPSREEMTKNQVSLWCLVKGFYPSDIAVEWESNGQPENNYKTTPPVLDSDGSFFLYSKLTVDKSRWQQGNVFSCSVMHEALHNHYTQKSLSLSPGK
notes: IgG1; HC1/LC form the CD79b Fab arm; HC2 is the CD3 scFv-Fc arm; Knobs-in-holes; also called CD79bxCD3 bsAb; CD9B643 x CD3B2030-N106A
Turning to B3, the EC50 in [2] was 12 nM; in [3], 15 nM; in experiment [4] it was 15 nM; in experiment [7], 12 nM. In addition, the figures for the dissociation constant Kd in [5] and in [6] were 0.052 nM and 0.35 nM, respectively.

B4: CD3B1127 (scFv)
scFv: QVQLQQSGAELARPGASVKMSCKASGYTFTRSTMHWVKQRPGQGLEWIGYINPSSAYTNYNQKFKDKATLTADKSSSTAYMQLSSLTSEDSAVYYCASPQVHYDYNGFPYWGQGTLVTVSAGGSEGKSSGSGSESKSTGGSQVVLTQSPAIMSAFPGEKVTMTCSASSSVSYMNWYQQKSGTSPKRWIYDSSKLASGVPARFSGSGSGTSYSLTISSMETEDAATYYCQQWSRNPPTFGGGTKLQIT
notes: also called Murine HL; murine Cris-7 scFv (HL)
For B4, in experiment [8], the “% Retained 55° C.” value was 19%, the “% Retained 60° C.” value is 0% and the “% Retained 65° C.” value is 1%. In experiment [9], this molecule registered an EC50 of around 0.397 nM. In addition, the 50% effective concentration (EC50 (read off the curve)) in [10] is around 0.4 nM.
